Target: the molecule itself
Assay: SEC

B1: pimeloyl-CoA ligase (BioW) (enzyme, UniProt P53559 1-259, looked up)
chain: MMQEETFYSVRMRASMNGSHEDGGKHISGGERLIPFHEMKHTVNALLEKGLSHSRGKPDFMQIQFEEVHESIKTIQPLPVHTNEVSCPEEGQKLARLLLEKEGVSRDVIEKAYEQIPEWSDVRGAVLFDIHTGKRMDQTKEKGVRVSRMDWPDANFEKWALHSHVPAHSRIKEALALASKVSRHPAVVAELCWSDDPDYITGYVAGKKMGYQRITAMKEYGTEEGCRVFFIDGSNDVNTYIHDLEKQPILIEWEEDHDS
stoichiometry N: 2
